The target of test [1] is wild type dynamin (dynWT; recombinant dynamin 1) (UniProt Q05193). Nature of the test: FLIM/FRET in fixed podocytes; donor GTPase-a488, acceptor Hudy1-a568; self-assembly.
Test [2] shares this target. Nature of the test: FLIM/FRET in fixed podocytes treated with LPS; donor GTPase-Alexa488, acceptor Hudy1-Alexa568; self-assembly.
The target is the same in test [3]. Nature of the test: FLIM/FRET in fixed podocytes treated with cytochalasin D; donor GTPase-a488, acceptor Hudy1-a568; self-assembly.
For test [4] the target is unchanged. The experiment in a line: FLIM/FRET in fixed podocytes treated with LPS + E64; donor GTPase-Alexa488, acceptor Hudy1-Alexa568; self-assembly.
Test [5] shares this target. The experiment in a line: FLIM/FRET in fixed podocytes; donor GTPase-alexa488, acceptor hudy1-alexa568; the value differs from the WT row of Table 1.
For test [6] the target is unchanged. Nature of the test: FLIM/FRET in fixed podocytes treated with colchicine; donor GTPase-a488, acceptor Hudy1-a568; variant not given, taken as WT.
For test [7] the target is unchanged. The experiment in a line: FLIM/FRET in fixed podocytes treated with jasplakinolide; donor GTPase-a488, acceptor Hudy1-a568; variant not given, taken as WT.
The target is the same in test [8]. Nature of the test: FLIM/FRET in fixed podocytes expressing the variant; donor GTPase-Alexa488, acceptor Hudy1-Alexa568; shorter lifetime = dynamin higher order self-assembly.
Test [9] shares this target. The experiment in a line: FLIM/FRET in fixed podocytes; donor GTPase-a488, acceptor GTPase-a568 (same antibody on both); the text says no FRET signal was detected with this antibody pair.
Test [10] concerns the target dynK694A (assembly impaired, dominant activating dynamin mutant) (UniProt Q05193). The experiment in a line: FLIM/FRET in fixed podocytes; donor GTPase-a488, acceptor Hudy1-a568; self-assembly.
Test [11] has the same target. The experiment in a line: FLIM/FRET in fixed podocytes treated with cytochalasin D; donor GTPase-a488, acceptor Hudy1-a568; self-assembly.
The target is the same in test [12]. The experiment in a line: FLIM/FRET in fixed podocytes expressing the variant; donor GTPase-Alexa488, acceptor Hudy1-Alexa568; self-assembly.
For another test, the target named is T1, EYFP-dynI690K fusion (UniProt Q05193 1-864).
T1 construct: it is read as I690K; also called YFP-1690K; not shown: EYFP tag
T1 sequence (looked up): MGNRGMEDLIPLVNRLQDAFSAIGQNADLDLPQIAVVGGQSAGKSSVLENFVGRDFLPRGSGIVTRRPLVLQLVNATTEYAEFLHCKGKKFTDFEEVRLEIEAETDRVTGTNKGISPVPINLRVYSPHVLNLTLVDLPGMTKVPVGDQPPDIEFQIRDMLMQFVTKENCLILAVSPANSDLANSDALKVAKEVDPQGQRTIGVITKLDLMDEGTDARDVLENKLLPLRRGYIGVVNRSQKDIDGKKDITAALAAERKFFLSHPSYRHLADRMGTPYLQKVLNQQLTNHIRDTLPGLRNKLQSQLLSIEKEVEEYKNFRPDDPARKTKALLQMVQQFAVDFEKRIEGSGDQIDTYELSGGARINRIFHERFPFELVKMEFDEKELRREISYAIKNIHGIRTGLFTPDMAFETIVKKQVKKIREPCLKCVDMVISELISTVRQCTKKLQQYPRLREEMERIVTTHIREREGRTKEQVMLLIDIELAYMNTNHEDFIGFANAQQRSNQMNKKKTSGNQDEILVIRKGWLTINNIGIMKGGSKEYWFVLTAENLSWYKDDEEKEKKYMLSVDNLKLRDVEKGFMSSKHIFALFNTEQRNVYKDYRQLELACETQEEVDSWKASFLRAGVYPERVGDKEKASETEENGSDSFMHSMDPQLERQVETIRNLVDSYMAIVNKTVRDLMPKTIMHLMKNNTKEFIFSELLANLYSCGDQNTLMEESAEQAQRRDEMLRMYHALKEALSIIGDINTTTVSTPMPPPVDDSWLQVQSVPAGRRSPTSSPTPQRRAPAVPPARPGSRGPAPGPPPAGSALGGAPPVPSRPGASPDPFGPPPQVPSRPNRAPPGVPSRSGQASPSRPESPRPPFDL
The experiment in a line: FLIM/FRET in live COS cells; lifetime of the ECFP donor; self-assembly.

The target in test [13] is T2, EYFP-dynamin wild type fusion (UniProt Q05193 1-864).
T2 construct: also called YFP-WT; EYFP-dynWT; not shown: EYFP tag
T2 sequence (looked up): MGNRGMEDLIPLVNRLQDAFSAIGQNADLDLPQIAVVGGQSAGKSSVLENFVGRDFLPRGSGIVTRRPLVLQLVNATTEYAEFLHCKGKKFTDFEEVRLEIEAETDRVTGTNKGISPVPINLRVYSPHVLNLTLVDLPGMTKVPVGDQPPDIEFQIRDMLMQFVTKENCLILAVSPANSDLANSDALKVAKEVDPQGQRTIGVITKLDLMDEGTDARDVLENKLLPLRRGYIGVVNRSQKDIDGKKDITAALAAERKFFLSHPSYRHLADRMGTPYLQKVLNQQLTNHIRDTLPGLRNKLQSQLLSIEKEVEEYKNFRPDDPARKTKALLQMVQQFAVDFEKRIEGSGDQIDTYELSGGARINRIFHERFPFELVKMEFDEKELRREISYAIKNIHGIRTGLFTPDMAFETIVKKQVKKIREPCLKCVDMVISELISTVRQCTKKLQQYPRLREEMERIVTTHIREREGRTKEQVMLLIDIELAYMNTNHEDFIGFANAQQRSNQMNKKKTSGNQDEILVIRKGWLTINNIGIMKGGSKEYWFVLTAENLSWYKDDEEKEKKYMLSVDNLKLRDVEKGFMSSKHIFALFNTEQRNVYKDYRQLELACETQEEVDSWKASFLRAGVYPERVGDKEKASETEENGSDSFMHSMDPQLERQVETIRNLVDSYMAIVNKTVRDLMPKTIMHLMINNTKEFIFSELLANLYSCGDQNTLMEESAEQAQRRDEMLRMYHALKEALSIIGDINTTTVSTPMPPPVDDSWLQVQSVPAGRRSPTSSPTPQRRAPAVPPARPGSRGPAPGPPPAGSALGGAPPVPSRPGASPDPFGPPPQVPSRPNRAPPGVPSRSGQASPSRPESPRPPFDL
The description is as above.

Experimental findings from patent publication US20100272709A1 (GENERAL HOSPITAL, published 2010) are described below.

Take “wild type dynamin (dynWT; recombinant dynamin 1) (from UniProt Q05193 1-864) (enzyme)”: the Mean Lifetime (γ1) was found to be 2250 ps in [1]; 2560 ps in [2]; 2030 ps in test [3]; 2280 ps in test [4]; 2300 ps in test [6]; 2250 ps in test [7]. The Mean Lifetime (γ1) in test [8] was 2210 ps; in test [9] it was 2420 ps. Moreover, the lifetime t1 in test [5] is 2270 ps.

B1: dynK694A (assembly impaired, dominant activating dynamin mutant) (enzyme, UniProt Q05193 1-864, looked up)
chain: MGNRGMEDLIPLVNRLQDAFSAIGQNADLDLPQIAVVGGQSAGKSSVLENFVGRDFLPRGSGIVTRRPLVLQLVNATTEYAEFLHCKGKKFTDFEEVRLEIEAETDRVTGTNKGISPVPINLRVYSPHVLNLTLVDLPGMTKVPVGDQPPDIEFQIRDMLMQFVTKENCLILAVSPANSDLANSDALKVAKEVDPQGQRTIGVITKLDLMDEGTDARDVLENKLLPLRRGYIGVVNRSQKDIDGKKDITAALAAERKFFLSHPSYRHLADRMGTPYLQKVLNQQLTNHIRDTLPGLRNKLQSQLLSIEKEVEEYKNFRPDDPARKTKALLQMVQQFAVDFEKRIEGSGDQIDTYELSGGARINRIFHERFPFELVKMEFDEKELRREISYAIKNIHGIRTGLFTPDMAFETIVKKQVKKIREPCLKCVDMVISELISTVRQCTKKLQQYPRLREEMERIVTTHIREREGRTKEQVMLLIDIELAYMNTNHEDFIGFANAQQRSNQMNKKKTSGNQDEILVIRKGWLTINNIGIMKGGSKEYWFVLTAENLSWYKDDEEKEKKYMLSVDNLKLRDVEKGFMSSKHIFALFNTEQRNVYKDYRQLELACETQEEVDSWKASFLRAGVYPERVGDKEKASETEENGSDSFMHSMDPQLERQVETIRNLVDSYMAIVNKTVRDLMPKTIMHLMINNTAEFIFSELLANLYSCGDQNTLMEESAEQAQRRDEMLRMYHALKEALSIIGDINTTTVSTPMPPPVDDSWLQVQSVPAGRRSPTSSPTPQRRAPAVPPARPGSRGPAPGPPPAGSALGGAPPVPSRPGASPDPFGPPPQVPSRPNRAPPGVPSRSGQASPSRPESPRPPFDL
Turning to B1, the Mean Lifetime (γ1) worked out at 2410 ps in test [10], 2050 ps in [11] and 2410 ps in [12].

B2: ECFP-dynI690K fusion (other, UniProt Q05193 1-864, looked up)
chain: MGNRGMEDLIPLVNRLQDAFSAIGQNADLDLPQIAVVGGQSAGKSSVLENFVGRDFLPRGSGIVTRRPLVLQLVNATTEYAEFLHCKGKKFTDFEEVRLEIEAETDRVTGTNKGISPVPINLRVYSPHVLNLTLVDLPGMTKVPVGDQPPDIEFQIRDMLMQFVTKENCLILAVSPANSDLANSDALKVAKEVDPQGQRTIGVITKLDLMDEGTDARDVLENKLLPLRRGYIGVVNRSQKDIDGKKDITAALAAERKFFLSHPSYRHLADRMGTPYLQKVLNQQLTNHIRDTLPGLRNKLQSQLLSIEKEVEEYKNFRPDDPARKTKALLQMVQQFAVDFEKRIEGSGDQIDTYELSGGARINRIFHERFPFELVKMEFDEKELRREISYAIKNIHGIRTGLFTPDMAFETIVKKQVKKIREPCLKCVDMVISELISTVRQCTKKLQQYPRLREEMERIVTTHIREREGRTKEQVMLLIDIELAYMNTNHEDFIGFANAQQRSNQMNKKKTSGNQDEILVIRKGWLTINNIGIMKGGSKEYWFVLTAENLSWYKDDEEKEKKYMLSVDNLKLRDVEKGFMSSKHIFALFNTEQRNVYKDYRQLELACETQEEVDSWKASFLRAGVYPERVGDKEKASETEENGSDSFMHSMDPQLERQVETIRNLVDSYMAIVNKTVRDLMPKTIMHLMKNNTKEFIFSELLANLYSCGDQNTLMEESAEQAQRRDEMLRMYHALKEALSIIGDINTTTVSTPMPPPVDDSWLQVQSVPAGRRSPTSSPTPQRRAPAVPPARPGSRGPAPGPPPAGSALGGAPPVPSRPGASPDPFGPPPQVPSRPNRAPPGVPSRSGQASPSRPESPRPPFDL
notes: it is read as I690K; also called CFP-1690K; not shown: ECFP tag
With B2, the “Mean Lifetime (γ1) ps” value with EYFP-dynI690K fusion was 2070 ps; in test [13], 1110 ps.
